What was measured:
[1] = molecular target: chimeric human MSLN-R3 / chicken MSLN-R1-2 protein on HEK293T cells (clone A5) (chicken; human); experiment: FACS, HEK293T-chickR1-2/hR3-A5 cells
[2] = molecular target: human MSLN protein endogenously expressed on tumor cells (Hela, OVCAR3) (human) (UniProt Q13421); experiment: FACS, OVCAR3 cells, antibody 0.00128 nM
[3] = molecular target: human MSLN full-length protein, recombinant, on CHO-K1 or HEK293T cells (human) (UniProt Q13421); experiment: competitive FACS on CHO-K1-human MSLN-2C8 cells vs Biotin-Tab142; competitor at 0.8 nM
[4] = molecular target: human MSLN protein endogenously expressed on tumor cells (Hela, OVCAR3) (human) (UniProt Q13421); experiment: FACS, OVCAR3 cells, antibody 0.2 nM
[5] = molecular target: monkey MSLN full-length protein on HEK293T cells (monkey); experiment: FACS, HEK293T-monkey-MSLN cells, antibody 100 nM
[6] = molecular target: human MSLN full-length protein, recombinant, on CHO-K1 or HEK293T cells (human) (UniProt Q13421); experiment: FACS, HEK293T-hMSLN-B8 cells
[7] = molecular target: monkey MSLN full-length protein on HEK293T cells (monkey); experiment: FACS, HEK293T-monkey-MSLN cells, antibody 20 nM
[8] = molecular target: chimeric human MSLN-R3 / chicken MSLN-R1-2 protein on HEK293T cells (clone A5) (chicken; human); experiment: FACS, HEK293T-hR3/chickR1-2-A5 cells, antibody 20 nM
[9] = molecular target: monkey MSLN full-length protein on HEK293T cells (monkey); experiment: FACS, HEK293T-monkey-MSLN cells, antibody 0.00128 nM
[10] = molecular target: human MSLN full-length protein, recombinant, on CHO-K1 or HEK293T cells (human) (UniProt Q13421); experiment: competitive FACS on CHO-K1-human MSLN-2C8 cells vs Biotin-Tab142; competitor at 20 nM
[11] = molecular target: human MSLN protein endogenously expressed on tumor cells (Hela, OVCAR3) (human) (UniProt Q13421); experiment: FACS, OVCAR3 cells, antibody 0.16 nM
[12] = molecular target: human MSLN full-length protein on transfected cells (CHO-K1-hMSLN clones 2C8, 2D11, 2C5; HEK293T-hMSLN clones B8, 2A4, 2A7) (human) (UniProt Q13421); experiment: FACS, CHO-K1-hMSLN-2C8 cells, antibody 4 nM
[13] = molecular target: human MSLN full-length protein on transfected cells (CHO-K1-hMSLN clones 2C8, 2D11, 2C5; HEK293T-hMSLN clones B8, 2A4, 2A7) (human) (UniProt Q13421); experiment: FACS, CHO-K1-hMSLN-2C8 cells, antibody 0.0064 nM
[14] = molecular target: human MSLN-R3-rFc protein (human) (UniProt Q13421); experiment: ELISA, antibody 0.032 nM
[15] = molecular target: human MSLN full-length protein on transfected cells (CHO-K1-hMSLN clones 2C8, 2D11, 2C5; HEK293T-hMSLN clones B8, 2A4, 2A7) (human) (UniProt Q13421); experiment: FACS, CHO-K1-hMSLN-2C8 cells, antibody 20 nM
[16] = molecular target: human MSLN full-length protein on transfected cells (CHO-K1-hMSLN clones 2C8, 2D11, 2C5; HEK293T-hMSLN clones B8, 2A4, 2A7) (human) (UniProt Q13421); experiment: FACS, CHO-K1-hMSLN-2C8 cells, antibody 100 nM
[17] = molecular target: human MSLN protein endogenously expressed on tumor cells (Hela, OVCAR3) (human) (UniProt Q13421); experiment: FACS, OVCAR3 cells, antibody 0.032 nM
[18] = molecular target: human MSLN full-length protein, recombinant, on CHO-K1 or HEK293T cells (human) (UniProt Q13421); experiment: competitive FACS on CHO-K1-human MSLN-2C8 cells vs Biotin-Tab142; competitor at 0.00256 nM
[19] = molecular target: human MSLN protein endogenously expressed on tumor cells (Hela, OVCAR3) (human) (UniProt Q13421); experiment: FACS, OVCAR3 cells, antibody 0.0064 nM
[20] = molecular target: human MSLN full-length protein, recombinant, on CHO-K1 or HEK293T cells (human) (UniProt Q13421); experiment: competitive FACS on CHO-K1-human MSLN-2C8 cells vs Biotin-Tab131; competitor at 0.32 nM
[21] = molecular target: chimeric human MSLN-R3 / chicken MSLN-R1-2 protein on HEK293T cells (clone A5) (chicken; human); experiment: FACS, HEK293T-hR3/chickR1-2-A5 cells, antibody 0.2 nM
[22] = molecular target: human MSLN full-length protein, recombinant, on CHO-K1 or HEK293T cells (human) (UniProt Q13421); experiment: competitive FACS on CHO-K1-human MSLN-2C8 cells vs Biotin-Tab131; competitor at 1.6 nM
[23] = molecular target: human MSLN protein endogenously expressed on tumor cells (Hela, OVCAR3) (human) (UniProt Q13421); experiment: FACS, OVCAR3 cells, antibody 100 nM
[24] = molecular target: human MSLN full-length protein on transfected cells (CHO-K1-hMSLN clones 2C8, 2D11, 2C5; HEK293T-hMSLN clones B8, 2A4, 2A7) (human) (UniProt Q13421); experiment: FACS, CHO-K1-hMSLN-2C8 cells, antibody 0.8 nM
[25] = molecular target: human MSLN full-length protein, recombinant, on CHO-K1 or HEK293T cells (human) (UniProt Q13421); experiment: competitive FACS on CHO-K1-human MSLN-2C8 cells vs Biotin-Tab142; competitor at 100 nM
[26] = molecular target: human MSLN full-length protein, recombinant, on CHO-K1 or HEK293T cells (human) (UniProt Q13421); experiment: competitive FACS on CHO-K1-human MSLN-2C8 cells vs Biotin-Tab142; competitor at 40 nM
[27] = molecular target: human MSLN full-length protein, recombinant, on CHO-K1 or HEK293T cells (human) (UniProt Q13421); experiment: competitive FACS on CHO-K1-human MSLN-2C8 cells vs Biotin-Tab142; competitor at 1.6 nM

human MSLN full-length protein on transfected cells (CHO-K1-hMSLN clones 2C8, 2D11, 2C5; HEK293T-hMSLN clones B8, 2A4, 2A7) (human), sequence (Q13421 other isoform, or with tags, fused parts or gaps limits assumed): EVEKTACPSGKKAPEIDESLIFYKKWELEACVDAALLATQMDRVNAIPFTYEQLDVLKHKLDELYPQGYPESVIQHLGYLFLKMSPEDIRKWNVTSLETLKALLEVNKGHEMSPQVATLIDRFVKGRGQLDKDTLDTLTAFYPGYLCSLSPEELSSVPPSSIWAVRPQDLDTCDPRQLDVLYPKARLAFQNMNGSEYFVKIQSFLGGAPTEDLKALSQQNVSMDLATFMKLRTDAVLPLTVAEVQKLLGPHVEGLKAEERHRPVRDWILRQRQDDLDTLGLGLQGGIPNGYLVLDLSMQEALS
human MSLN full-length protein, recombinant, on CHO-K1 or HEK293T cells (human), sequence (Q13421 other isoform, or with tags, fused parts or gaps limits assumed): as above
chimeric human MSLN-R3 / chicken MSLN-R1-2 protein on HEK293T cells (clone A5) (chicken; human), sequence (Q13421 495-614, change not shown): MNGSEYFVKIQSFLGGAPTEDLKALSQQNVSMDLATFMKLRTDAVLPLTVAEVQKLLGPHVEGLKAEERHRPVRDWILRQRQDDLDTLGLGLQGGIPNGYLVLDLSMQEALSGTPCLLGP
human MSLN protein endogenously expressed on tumor cells (Hela, OVCAR3) (human), sequence (Q13421 other isoform, or with tags, fused parts or gaps): as the sequence (Q13421 other isoform, or with tags, fused parts or gaps limits assumed) above, with P14R counted along it

hIgG1 (antibody)
Max MFI [1]: 115
FACS signal (MFI) [2]: 75
MFI of Biotin-Tab142 [3]: 44300
MFI [4]: 106
FACS signal (MFI) [5]: 127
Max MFI [6]: 77
FACS signal (MFI) [7]: 84
MFI [8]: 74
FACS signal (MFI) [9]: 84
MFI of Biotin-Tab142 [10]: 42600
FACS signal (MFI) [11]: 74
FACS signal (MFI) [12]: 110
FACS signal (MFI) [13]: 65
OD450 nm [14]: 0.11
FACS signal (MFI) [15]: 156
FACS signal (MFI) [16]: 72
FACS signal (MFI) [17]: 75
MFI of Biotin-Tab142 [18]: 24300
FACS signal (MFI) [19]: 74
MFI of Biotin-Tab131 [20]: 12700
MFI [21]: 73
MFI of Biotin-Tab131 [22]: 12600
FACS signal (MFI) [23]: 93
FACS signal (MFI) [24]: 80
MFI of Biotin-Tab142 [25]: 41200
MFI of Biotin-Tab142 [26]: 23600
MFI of Biotin-Tab142 [27]: 22700
